Reference: US20190062438A1 (CSL, published 2019)
Positions count from the first letter of the chain named.

Columns and labels:
[1] = molecular target: T1, shCD131 T106A (human, UniProt P32927 17-438); test: SPR, Fab over captured mutant
T1 construct: C-terminal 6xHis
T1 sequence: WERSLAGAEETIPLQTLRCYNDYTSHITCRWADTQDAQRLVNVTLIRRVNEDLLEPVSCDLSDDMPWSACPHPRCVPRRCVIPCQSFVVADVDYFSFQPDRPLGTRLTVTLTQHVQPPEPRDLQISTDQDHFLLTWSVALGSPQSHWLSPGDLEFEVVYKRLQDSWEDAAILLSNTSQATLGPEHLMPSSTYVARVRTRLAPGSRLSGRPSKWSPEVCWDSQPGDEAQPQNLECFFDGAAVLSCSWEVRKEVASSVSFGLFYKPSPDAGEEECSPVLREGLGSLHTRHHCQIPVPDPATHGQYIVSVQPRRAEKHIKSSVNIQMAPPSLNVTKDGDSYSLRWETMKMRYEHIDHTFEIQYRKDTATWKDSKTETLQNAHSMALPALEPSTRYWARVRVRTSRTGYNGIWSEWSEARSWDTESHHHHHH
Procedure: For some analysis purified Fab was injected over each flow cell for 3 minutes and dissociation was monitored for a further 10 minutes. Regeneration of the surface was performed after each cycle with a 40 second injection of 25 mM glycine, pH 2.0. The analysis was performed with Fabs at several concentrations between 100 and 0.31 nM, with each concentration analyzed twice and in random order. The analysis was performed at a flow rate of 30 μl/min in HBS-EP buffer (10 mM Hepes, 150 mM NaCl, 3 mM EDTA, 0.005% Tween 20, pH 7.4) at 37° C. Responses from spots 2 and 4 of each flow cell, (in which shβc was not captured, but otherwise treated identically), were subtracted from those of spots 1 and 5 respectively to produce reference subtracted data. Reference subtracted responses from a blank injection comprising buffer alone were subtracted from the resultant sensorgrams to produce double referenced data suitable for kinetic analysis. […]
Mapping of the shCD131 epitope was performed by measurement of the affinity of Fabs for various alanine point mutants of shCD131 essentially as described above, with the following exceptions. […] For kinetic analysis, purified recombinant Fabs were injected for 2 minutes, and dissociation was monitored for a further 2 minutes. […] Kinetic parameters were determined as described above.

[2] = molecular target: T2, soluble Homo sapiens CD131 comprising a C-terminal 6xHis tag (human, UniProt P32927 17-438); test: SPR, Fab over captured shCD131
T2 construct: truncated after Ser438, C-terminal 6xHis; also called shCD131; shβc
T2 sequence: T1 sequence with A90T
Procedure: Binding kinetics were measured using SPR with a BIAcore™ A-100 instrument (GE Healthcare Life Sciences). An anti-C-terminal Hexa-His antibody (3H3) was immobilized on spots 1, 2, 4 and 5 of each flow cell of a CM-5 sensor chip (GE Healthcare Life Sciences) using amine-coupling chemistry (116). […] As shβc is a dimer, kinetics assays were performed with shβc captured on the sensor surface, and purified Fab injected as the analyte. Avidity effects were avoided by the use of Fab rather than whole IgG.
shCD131 was captured on spots 1 and 5 of each flow cell for 2 minutes at a concentration of 0.4 μg/ml. […] For some analysis purified Fab was injected over each flow cell for 3 minutes and dissociation was monitored for a further 10 minutes. Regeneration of the surface was performed after each cycle with a 40 second injection of 25 mM glycine, pH 2.0. The analysis was performed with Fabs at several concentrations between 100 and 0.31 nM, with each concentration analyzed twice and in random order. The analysis was performed at a flow rate of 30 μl/min in HBS-EP buffer (10 mM Hepes, 150 mM NaCl, 3 mM EDTA, 0.005% Tween 20, pH 7.4) at 37° C. Responses from spots 2 and 4 of each flow cell, (in which shβc was not captured, but otherwise treated identically), were subtracted from those of spots 1 and 5 respectively to produce reference subtracted data. Reference subtracted responses from a blank injection comprising buffer alone were subtracted from the resultant sensorgrams to produce double referenced data suitable for kinetic analysis. Double-referenced sensorgrams were fitted using non-linear regression to a model describing 1:1 kinetics, including a term for mass transport limitation. The Rₘₐₓ value was fitted locally to account for slight deviations in the level of sCD131 captured, with association rate (kₐ), dissociation rate (kd) and equilibrium dissociation constant (KD) fitted globally.

fold increase in affinity relative to WT shCD131 [1]: ~10 fold | Kd [2]: 49 nM | koff [2]: 0.096 s⁻¹ | kon [2]: 2e+06 M⁻¹ s⁻¹
B1: 9A2 Fab (Fab, V domains shown)
VH: EVQLLESGGGLVQPGGSLRLSCAASGFTFSHYHMLWVRQAPGKGLEWVSSIRSSGGFTYYADSVKGRFTISRDNSKNTLYLQMNSLRAEDTAVYYCARFYDSFFDIWGQGTMVTVSS
VL: DIQMTQSPSSVSASVGDRVTITCRASQGISSWLAWYQQKPGKAPKLLIYAASSLQSGVPSRFSGSGSGTDFTLTISSLQPEDFATYYCQQANSFPITFGQGTRLEIKR
notes: also called recombinant Fab of 9A2
